Data published in patent US20060159695A1.

Experiments:
[1] = target: RSV F protein (A2 strain) G438A (human RSV, A2 strain) (UniProt P03420); assay: cell ELISA, 293T cells expressing F
[2] = target: RSV F protein (A2 strain) N428D (human RSV, A2 strain) (UniProt P03420); assay: cell ELISA, 293T cells expressing F
[3] = target: RSV F protein (A2 strain) F488L (human RSV, A2 strain) (UniProt P03420); assay: cell ELISA, 293T cells expressing F
[4] = target: RSV F protein (A2 strain) K433N (human RSV, A2 strain) (UniProt P03420); assay: cell ELISA, 293T cells expressing F
[5] = target: RSV F protein (A2 strain) K433L (human RSV, A2 strain) (UniProt P03420); assay: cell ELISA, 293T cells expressing F
[6] = target: RSV F protein (A2 strain) K433Q (human RSV, A2 strain) (UniProt P03420); assay: cell ELISA, 293T cells expressing F
[7] = target: RSV F protein (A2 strain) K272M (human RSV, A2 strain) (UniProt P03420); assay: cell ELISA, 293T cells expressing F
[8] = target: RSV F protein (A2 strain) F483L (human RSV, A2 strain) (UniProt P03420); assay: cell ELISA, 293T cells expressing F
[9] = target: RSV F protein (A2 strain) K272Q (human RSV, A2 strain) (UniProt P03420); assay: cell ELISA, 293T cells expressing F
[10] = target: RSV F protein (A2 strain) C422S (human RSV, A2 strain) (UniProt P03420); assay: cell ELISA, 293T cells expressing F
[11] = target: RSV F protein (A2 strain) T400A (human RSV, A2 strain) (UniProt P03420); assay: cell ELISA, 293T cells expressing F
[12] = target: RSV F protein (A2 strain) F488Y (human RSV, A2 strain) (UniProt P03420); assay: cell ELISA, 293T cells expressing F
[13] = target: RSV F protein (A2 strain) K433T (human RSV, A2 strain) (UniProt P03420); assay: cell ELISA, 293T cells expressing F
[14] = target: RSV F protein (A2 strain) I432T (human RSV, A2 strain) (UniProt P03420); assay: cell ELISA, 293T cells expressing F
[15] = target: RSV F protein (A2 strain) I431A (human RSV, A2 strain) (UniProt P03420); assay: cell ELISA, 293T cells expressing F
[16] = target: RSV F protein (A2 strain) S436F (human RSV, A2 strain) (UniProt P03420); assay: cell ELISA, 293T cells expressing F
[17] = target: RSV F protein (A2 strain) T434S (human RSV, A2 strain) (UniProt P03420); assay: cell ELISA, 293T cells expressing F
[18] = target: RSV F protein (A2 strain) K272T (human RSV, A2 strain) (UniProt P03420); assay: cell ELISA, 293T cells expressing F
[19] = target: RSV F protein (A2 strain) S275F (human RSV, A2 strain) (UniProt P03420); assay: cell ELISA, 293T cells expressing F
[20] = target: RSV F protein (A2 strain) F483Y (human RSV, A2 strain) (UniProt P03420); assay: cell ELISA, 293T cells expressing F
[21] = target: RSV F protein (A2 strain) I432Q (human RSV, A2 strain) (UniProt P03420); assay: cell ELISA, 293T cells expressing F
[22] = target: RSV F protein (A2 strain) V447A (human RSV, A2 strain) (UniProt P03420); assay: cell ELISA, 293T cells expressing F
[23] = target: RSV F protein (A2 strain) K433D (human RSV, A2 strain) (UniProt P03420); assay: cell ELISA, 293T cells expressing F
[24] = target: RSV F protein (A2 strain) R429K (human RSV, A2 strain) (UniProt P03420); assay: cell ELISA, 293T cells expressing F
[25] = target: RSV F protein (A2 strain) N437D (human RSV, A2 strain) (UniProt P03420); assay: cell ELISA, 293T cells expressing F
[26] = target: RSV F protein (A2 strain) K427D (human RSV, A2 strain) (UniProt P03420); assay: cell ELISA, 293T cells expressing F
[27] = target: RSV F protein (A2 strain) K433R (human RSV, A2 strain) (UniProt P03420); assay: cell ELISA, 293T cells expressing F
[28] = target: Wild-type RSV F protein (subgroup B, 18537 strain) (human RSV, 18537 strain) (UniProt P13843); assay: cell ELISA, 293T cells expressing F
[29] = target: RSV F protein (A2 strain) N428Q (human RSV, A2 strain) (UniProt P03420); assay: cell ELISA, 293T cells expressing F
[30] = target: RSV F protein (A2 strain) K433S (human RSV, A2 strain) (UniProt P03420); assay: cell ELISA, 293T cells expressing F
[31] = target: RSV F protein (A2 strain) I431L (human RSV, A2 strain) (UniProt P03420); assay: cell ELISA, 293T cells expressing F
[32] = target: RSV F protein (A2 strain) F435Y (human RSV, A2 strain) (UniProt P03420); assay: cell ELISA, 293T cells expressing F
[33] = target: RSV F protein (A2 strain) D486N (human RSV, A2 strain) (UniProt P03420); assay: cell ELISA, 293T cells expressing F
[34] = target: RSV F protein (A2 strain) K427Q (human RSV, A2 strain) (UniProt P03420); assay: cell ELISA, 293T cells expressing F
[35] = target: RSV F protein (A2 strain) K272N (human RSV, A2 strain) (UniProt P03420); assay: cell ELISA, 293T cells expressing F
[36] = target: Wild-type RSV F protein (subgroup A, A2 strain) (human RSV, A2 strain) (UniProt P03420); assay: cell ELISA, 293T cells expressing F
[37] = target: RSV F protein (A2 strain) G430A (human RSV, A2 strain) (UniProt P03420); assay: cell ELISA, 293T cells expressing F
[38] = target: RSV F protein (A2 strain) S436T (human RSV, A2 strain) (UniProt P03420); assay: cell ELISA, 293T cells expressing F
[39] = target: RSV F protein (A2 strain) I432L (human RSV, A2 strain) (UniProt P03420); assay: cell ELISA, 293T cells expressing F
[40] = target: RSV F protein (A2 strain) R429S (human RSV, A2 strain) (UniProt P03420); assay: cell ELISA, 293T cells expressing F
[41] = target: RSV F protein (A2 strain) K427E (human RSV, A2 strain) (UniProt P03420); assay: cell ELISA, 293T cells expressing F
[42] = target: RSV F protein on human RSV virus (Long strain) (human RSV, Long strain) (UniProt P12568); assay: cell-based or functional assay
[43] = target: soluble, extracellular domain of recombinantly expressed RSV F protein (human RSV); assay: SPR (BIAcore 3000), F protein amine-coupled to CM5 chip

With chimeric 101F mAb (antibody) the % mAb binding relative to wild-type [1] was 9.2%.

For mAb19 (antibody), the % mAb binding relative to wild-type [2] was 121%, the % mAb binding relative to wild-type [3] was 40% and the % mAb binding relative to wild-type [4] was 28.7%. For the same substance, the % mAb binding relative to wild-type [5] was 24.5%, the % mAb binding relative to wild-type [6] was 47.4% and the % mAb binding relative to wild-type [7] was 100%. The % mAb binding relative to wild-type [1] was 19%, the % mAb binding relative to wild-type [8] was 101% and the % mAb binding relative to wild-type [9] was 88.7%. It also gave a % mAb binding relative to wild-type [10] of 194%, a % mAb binding relative to wild-type [11] of 161% and a % mAb binding relative to wild-type [12] of 56%. The % mAb binding relative to wild-type [13] was 64.4%, the % mAb binding relative to wild-type [14] was 170% and the % mAb binding relative to wild-type [15] was 81.8%. The % mAb binding relative to wild-type [16] was 163%, the % mAb binding relative to wild-type [17] was 84.9% and the % mAb binding relative to wild-type [18] was 68%. The % mAb binding relative to wild-type [19] was 31.7%, the % mAb binding relative to wild-type [20] was 141% and the % mAb binding relative to wild-type [21] was 57.9%. The % mAb binding relative to wild-type [22] was 62.7%, the % mAb binding relative to wild-type [23] was 1.6% and the % mAb binding relative to wild-type [24] was 11.2%. The % mAb binding relative to wild-type [25] was 33.2%, the % mAb binding relative to wild-type [26] was -12.7% and the % mAb binding relative to wild-type [27] was 23.1%. For the same substance, the % mAb binding relative to wild-type [28] was 105%, the % mAb binding relative to wild-type [29] was 194% and the % mAb binding relative to wild-type [30] was 112%. It also gave a % mAb binding relative to wild-type [31] of 65.5%, a % mAb binding relative to wild-type [32] of 9.2% and a % mAb binding relative to wild-type [33] of 30.7%. It also gave a % mAb binding relative to wild-type [34] of 155%, a % mAb binding relative to wild-type [35] of 62.3% and a % mAb binding relative to wild-type [36] of 99.9%. For the same substance, the % mAb binding relative to wild-type [37] was 0.15%, the % mAb binding relative to wild-type [38] was 85.8% and the % mAb binding relative to wild-type [39] was 64.4%. The % mAb binding relative to wild-type [40] was 3.9% and the % mAb binding relative to wild-type [41] was 68.7%.

palivizumab (antibody) showed an RSV neutralization IC50 (Palivizumab) [42] of 0.1 µg/mL and a Kd [43] of 1.1 nM.

With palivizumab Fab the RSV neutralization IC50 (Palivizumab Fab) [42] was 3.2 µg/mL, the Kd [43] was 1.5 nM and the koff [43] was 0.0011 s⁻¹. The kon [43] was 720000 M⁻¹ s⁻¹.
